Tests used:
Assay in all cases: cell-based or functional assay
[1] = target: HIV-1 Env of isolate AC10 (HIV-1)
[2] = target: HIV-1 Env of isolate DU156 (HIV-1)
[3] = target: HIV-1 Env of isolate TR0.11 (HIV-1)
[4] = target: HIV-1 Env of isolate 92RW008 (clade A), on pseudovirus (HIV-1)
[5] = target: HIV-1 Env of isolate 92UG046 (subtype D), on pseudovirus (HIV-1)
[6] = target: HIV-1 Env of isolate 92WR020 (pseudovirus) (HIV-1)
[7] = target: HIV-1 Env of isolate 92WR024 (pseudovirus) (HIV-1)
[8] = target: HIV-1 Env of isolate 94 KE 105 (pseudovirus) (HIV-1)
[9] = target: HIV-1 Env of isolate APV_13 (HIV-1)
[10] = target: HIV-1 Env of isolate CMU02 (pseudovirus) (HIV-1)
[11] = target: HIV-1 Env of isolate MG RM-A-011 (pseudovirus) (HIV-1)
[12] = target: HIV-1 Env of isolate MG RM-A-013 (pseudovirus) (HIV-1)
[13] = target: HIV-1 Env of isolate MGRM-D-001 (subtype D), on pseudovirus (HIV-1)
[14] = target: HIV-1 Env of isolate MGRM-D-002 (subtype D), on pseudovirus (HIV-1)
[15] = target: HIV-1 Env of isolate MGRM-D-003 (subtype D), on pseudovirus (HIV-1)
[16] = target: HIV-1 Env of isolate VLGCA1 (pseudovirus) (HIV-1)
[17] = target: HIV-1 JR-CSF Env I423A (HIV-1 (isolate JR-CSF)) (UniProt P20871)
[18] = target: HIV-1 CMU02 Env (pseudovirus) (HIV-1)
[19] = target: HIV-1 MGRM-A-010 Env (pseudovirus) (HIV-1)
[20] = target: HIV-1 MGRM-AG-005 Env (pseudovirus) (HIV-1)
[21] = target: HIV-1 Env of isolate 92BR020 (clade B) (HIV-1)
[22] = target: HIV-1 Env of isolate APV17 (clade B) (HIV-1)
[23] = target: HIV-1 Env of isolate MGRM-A-010 (clade A) (HIV-1)
[24] = target: HIV-1 Env of isolate MGRM-C-026 (clade C) (HIV-1)
[25] = target: HIV-1 Env of isolate MGRM-C-027 (clade C) (HIV-1)
[26] = target: HIV-1 Env of isolate QH0692.42 (subtype B) (HIV-1)
[27] = target: HIV-1 envelope glycoprotein (Env) of isolate JRFL, on pseudovirus (HIV-1)
[28] = target: HIV-1 envelope glycoprotein (Env) of isolate MGRM-Chronic-B-003, on pseudovirus (HIV-1)
[29] = target: HIV-1 envelope glycoprotein (Env) of isolate MGRM-Chronic-B-011, on pseudovirus (HIV-1)
[30] = target: HIV-1 92BR020 Env (clade B pseudovirus) (HIV-1)
[31] = target: HIV-1 93IN905 Env (clade C pseudovirus) (HIV-1)
[32] = target: HIV-1 93UG077 Env (clade A pseudovirus) (HIV-1)
[33] = target: HIV-1 APV17 Env (clade B pseudovirus) (HIV-1)
[34] = target: HIV-1 JRCSF Env (clade B pseudovirus) (HIV-1) (UniProt P20871)
[35] = target: HIV-1 MGRM-A-010 Env (clade A pseudovirus) (HIV-1)
[36] = target: HIV-1 MGRM-AG-005 Env (clade AG pseudovirus) (HIV-1)

1443_C16 (PG16) (TCN-116) (antibody), sequence (VH): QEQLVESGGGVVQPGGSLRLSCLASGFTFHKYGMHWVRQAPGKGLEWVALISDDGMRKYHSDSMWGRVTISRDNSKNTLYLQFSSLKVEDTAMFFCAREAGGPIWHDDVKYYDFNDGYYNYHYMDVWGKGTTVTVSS
1443_C16 (PG16) (TCN-116) (antibody), sequence (VL): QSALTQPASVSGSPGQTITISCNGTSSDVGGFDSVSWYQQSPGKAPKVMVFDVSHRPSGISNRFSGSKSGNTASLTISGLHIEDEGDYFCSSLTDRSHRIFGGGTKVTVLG

1443_C16 (PG16) (TCN-116) (antibody)
IC50, pseudovirus neutralization (TZM-bl) [1]: < 0.01 µg/mL
IC50, pseudovirus neutralization (TZM-bl) [2]: < 0.01 µg/mL
IC50, pseudovirus neutralization (TZM-bl) [3]: 3.61 µg/mL

VRC01 (antibody)
IC50, single-round pseudovirus neutralization [4]: 0.037 µg/mL
IC50, pseudovirus neutralization [5]: 12.7 µg/mL
IC50 (µg/mL), pseudovirus neutralization [6]: 0.13 µg/mL
IC50 (µg/mL), pseudovirus neutralization [7]: 0.327 µg/mL
IC50 (µg/mL), pseudovirus neutralization [8]: 0.499 µg/mL
IC50 [9]: 0.657 µg/mL
IC50 (µg/mL), pseudovirus neutralization [10]: 0.515 µg/mL
IC50 (µg/mL), pseudovirus neutralization [11]: 0.273 µg/mL
IC50 (µg/mL), pseudovirus neutralization [12]: 0.152 µg/mL
IC50, pseudovirus neutralization [13]: > 50 µg/mL
IC50, pseudovirus neutralization [14]: 0.252 µg/mL
IC50, pseudovirus neutralization [15]: 2.06 µg/mL
IC50 (µg/mL), pseudovirus neutralization [16]: 0.163 µg/mL

PGT-121 (antibody)
Fold IC50 increase relative to wild-type [17]: 3.3 fold

5141_B17 (PGT-126) (antibody)
IC50 [18]: > 10 µg/mL
IC80 [18]: > 10 µg/mL
IC90 [18]: > 10 µg/mL
IC95 [18]: > 10 µg/mL
IC50 [19]: 0.0033 µg/mL
IC80 [19]: 0.0137 µg/mL
IC90 [19]: 0.0316 µg/mL
IC95 [19]: 0.0687 µg/mL
IC50 [20]: 1.35 µg/mL
IC80 [20]: > 10 µg/mL
IC90 [20]: > 10 µg/mL
IC95 [20]: > 10 µg/mL

5147_N06 (PGT-130) (antibody)
neutralization IC50 [21]: 1.12 µg/mL
neutralization IC80 [21]: > 10 µg/mL
neutralization IC90 [21]: > 10 µg/mL
neutralization IC95 [21]: > 10 µg/mL
neutralization IC50 [22]: > 10 µg/mL
neutralization IC80 [22]: > 10 µg/mL
neutralization IC90 [22]: > 10 µg/mL
neutralization IC95 [22]: > 10 µg/mL
neutralization IC50 [23]: 0.0054 µg/mL
neutralization IC80 [23]: 0.0251 µg/mL
neutralization IC90 [23]: 0.0643 µg/mL
neutralization IC95 [23]: 0.164 µg/mL
neutralization IC50 [24]: 0.0173 µg/mL
neutralization IC80 [24]: 0.263 µg/mL
neutralization IC90 [24]: 1.32 µg/mL
neutralization IC95 [24]: 6.13 µg/mL
neutralization IC50 [25]: 0.0052 µg/mL
neutralization IC80 [25]: 0.0318 µg/mL
neutralization IC90 [25]: 0.106 µg/mL
neutralization IC95 [25]: 0.464 µg/mL

PGV04 (antibody)
IC50 (µg/mL), pseudovirus neutralization [26]: 1.9 µg/mL
IC50, pseudovirus neutralization [27]: 0.032 µg/mL
IC50, pseudovirus neutralization [28]: 0.258 µg/mL
IC50, pseudovirus neutralization [29]: 0.497 µg/mL

4877_D15 (PGT-122) (antibody)
Neutralization by PGT-122, IC50 [30]: 0.0337 µg/mL
Neutralization by PGT-122, IC80 [30]: 0.0929 µg/mL
Neutralization by PGT-122, IC90 [30]: 0.168 µg/mL
Neutralization by PGT-122, IC95 [30]: 0.289 µg/mL
Neutralization by PGT-122, IC50 [31]: 0.0138 µg/mL
Neutralization by PGT-122, IC80 [31]: 0.0505 µg/mL
Neutralization by PGT-122, IC90 [31]: 0.108 µg/mL
Neutralization by PGT-122, IC95 [31]: 0.217 µg/mL
Neutralization by PGT-122, IC50 [32]: 0.191 µg/mL
Neutralization by PGT-122, IC80 [32]: 0.931 µg/mL
Neutralization by PGT-122, IC90 [32]: 2.1 µg/mL
Neutralization by PGT-122, IC95 [32]: 3.88 µg/mL
Neutralization by PGT-122, IC50 [33]: 0.522 µg/mL
Neutralization by PGT-122, IC80 [33]: 1.76 µg/mL
Neutralization by PGT-122, IC90 [33]: 3.58 µg/mL
Neutralization by PGT-122, IC95 [33]: 6.92 µg/mL
Neutralization by PGT-122, IC50 [34]: 0.0727 µg/mL
Neutralization by PGT-122, IC80 [34]: 0.245 µg/mL
Neutralization by PGT-122, IC90 [34]: 0.494 µg/mL
Neutralization by PGT-122, IC95 [34]: 0.926 µg/mL
Neutralization by PGT-122, IC50 [35]: 1.68 µg/mL
Neutralization by PGT-122, IC80 [35]: > 10 µg/mL
Neutralization by PGT-122, IC90 [35]: > 10 µg/mL
Neutralization by PGT-122, IC95 [35]: > 10 µg/mL
Neutralization by PGT-122, IC50 [36]: > 10 µg/mL
Neutralization by PGT-122, IC80 [36]: > 10 µg/mL
Neutralization by PGT-122, IC90 [36]: > 10 µg/mL
Neutralization by PGT-122, IC95 [36]: > 10 µg/mL

Reference: US20200024330A1
